This experiment deals with LRP. In words: cell-based or functional assay.

B1: RAP-IDU fusion (human RAP fused N-terminally to human alpha-L-iduronidase) (protein)
chain: SYSREKNQPKPSPKRESGEEFRMEKLNQLWEKAQRLHLPPVRLAELHADLKIQERDELAWKKLKLDGLDEDGEKEARLIRNLNVILAKYGLDGKKDARQVTSNSLSGTQEDGLDDPRLEKLWHKAKTSGKFSGEELDKLWREFLHHKEKVHEYNVLLETLSRTEEIHENVISPSDLSDIKGSVLHSRHTELKEKLRSINQGLDRLRRVSHQGYSTEAEFEEPRVIDLWDLAQSANLTDKELEAFREELKHFEAKIEKHNHYQKQLEIAHEKLRHAESVGDGERVSRSREKHALLEGRTKELGYTVKKHLQDLSGRISRARAEAETGEAPHLVHVDAARALWPLRRFWRSTGFCPPLPHSQADQYVLSWDQQLNLAYVGAVPHRGIKQVRTHWLLELVTTRGSTGRGLSYNFTHLDGYLDLLRENQLLPGFELMGSASGHFTDFEDKQQVFEWKDLVSSLARRYIGRYGLAHVSKWNFETWNEPDHHDFDNVSMTMQGFLNYYDACSEGLRAASPALRLGGPGDSFHTPPRSPLSWGLLRHCHDGTNFFTGEAGVRLDYISLHRKGARSSISILEQEKVVAQQIRQLFPKFADTPIYNDEADPLVGWSLPQPWRADVTYAAMVVKVIAQHQNLLLANTTSAFPYALLSNDNAFLSYHPHPFAQRTLTARFQVNNTRPPHVQLLRKPVLTAMGLLALLDEEQLWAEVSQAGTVLDSNHTVGVLASAHRPQGPADAWRAAVLIYASDDTRAHPNRSVAVTLRLRGVPPGPGLVYVTRYLDNGLCSPDGEWRRLGRPVFPTAEQFRRMRAAEDPVAAAPRPLPAGGRLTLRPALRLPSLLLVHVCARPEKPPGQVTRLRALPLTQGQLVLVWSDEHVGSKCLWTYEIQFSQDGKAYTPVSRKPSTFNLFVFSPDTGAVSGSYRVRALDYWARPGPFSDPVPYLEVPVPRGPPSPGNP
On to B1, for which the Kuptake ratio (fusion/enzyme), RAP-IDU against rhIDU, fibroblast (ratio (fusion/enzyme)) was found to be 25; the Uptake ratio (fusion/enzyme), RAP-IDU against rhIDU, fibroblast, 5 nM (ratio (fusion/enzyme)) turned out to be 7; the Uptake ratio (fusion/enzyme), RAP-IDU against rhIDU, fibroblast, 50 nM (ratio (fusion/enzyme)) came to 27; the Uptake ratio (fusion/enzyme), RAP-IDU against rhIDU, fibroblast, saturation (ratio (fusion/enzyme)) came to 43.
